The results in this text go back to US5576295A, “Agent for suppressing the motor activity of gastrointestinal tracts” (Nisshin Flour Milling Co., Ltd., priority 1993, dated 1996).

Data set [1] concerns male BALB/c mice. Description: Intraperitoneal administration to mice, observation of appearance. As to conditions: 10 mg/kg intraperitoneally, male BALB/c mice (6 weeks age). The class given is in vivo.
The subject of data set [2] is motor activity of gastrointestinal tracts. The data set is described as follows: Motor activity of gastrointestinal tracts in the post-feed period in dogs sutured with strain gauge transducers. In kind it is in vivo. Here is the method: An experiment was performed as described below in order to examine the action of glicentin on a motility of gastrointestinal tracts.
Six hybrid dogs weighing 16-18 kg were sutured with strain gauge transducers (manufactured by Star Medical, F121S) at a site of the gastric antrum 4 cm from the pyloric ring, a site of the duodenum for the main incurrent pancreatic duct and a site of the jejunum 10 cm from the Treitz's ligamentum, respectively, to measure the contractile force intensity of the circular muscle. Recovery period for the suture was 2 weeks.
Three of the 6 dogs were intravenously given over 1 hour 15 ml of a physiological saline solution in which 400 pmol of glicentin had been dissolved per kg of bodyweight. The remaining three received an aqueous physiological solution containing no glicentin in the same way as above as a control for comparison. The dogs were fed on 15 g of a solid diet (SD®, manufactured by Oriental Yeast K.K.) and 15 g of Vitaone® (manufactured by Nihon Pet Food K.K. and Kyodo Shiryo K.K.) per kg of bodyweight simultaneously with the intravenous administration.
Then, the motor activity of gastrointestinal tracts and length of the post-feed period were measured. Intensity of the contraction in the post-feed period was integrated for the two-hour measurements and evaluated in comparison with the mean level of the signal peak in phase 3 motor activity of the gastrointestinal tracts in hunger and taken as a motor index.

Setting [3] is: 400 pmol/kg i.v. over 1 hour, post-feed contraction integrated over two hours relative to phase 3 peak in hunger, average ± standard error.
Setting [4] is: 400 pmol/kg i.v. over 1 hour, versus control.

B1: Glicentin: One of enteroglucagons, a peptide comprising 69 amino acid residues; human glicentin (SEQ ID NO: 1) prepared by genetic engineering (protein)
chain: RSLQDTEEKSRSFSASQADPLSDPDQMNEDKRHSQGTFTSDYSKYLDSRRAQDFVQWLMNTKRNRNNIA
Consider B1, for which the Change in appearance result in data set [1] is reported as “no change in appearance is observed”. Moreover, the “Length of post-feed period” value in data set [2] (400 pmol/kg glicentin intravenously over 1 hour, fed simultaneously, average ± standard error) is 13.6 ± 1.0 h. In data set [2] (setting [3]), the “Motor index, duodenum” value came out at 0.675 ± 0.4; the “Motor index, gastric antrum” value worked out at 0.878 ± 0.1; the “Motor index, jejunum” value is listed as 1.087 ± 0.2. For the same molecule, in data set [2] (setting [4]), the “Influence upon the length of the post-feed period (in words)” value is “no influence upon the length of the post-feed period” and the “Post-feed motility in the vestibulum of stomach (in words)” value is given as “inhibited the post-feed motility in the vestibulum of stomach”.
